According to PMC10918085, “Cryo-EM structures reveal how phosphate release from Arp3 weakens actin filament branches formed by Arp2/3 complex” (Nature Communications, 2024):

T1: ARPC1 of S. pombe Arp2/3 complex (S. pombe, UniProt P78774 1-377)
T1 construct: ARPC1 subunit of S. pombe Arp2/3 complex; Seen within the whole complex in the branch junction
T1 sequence: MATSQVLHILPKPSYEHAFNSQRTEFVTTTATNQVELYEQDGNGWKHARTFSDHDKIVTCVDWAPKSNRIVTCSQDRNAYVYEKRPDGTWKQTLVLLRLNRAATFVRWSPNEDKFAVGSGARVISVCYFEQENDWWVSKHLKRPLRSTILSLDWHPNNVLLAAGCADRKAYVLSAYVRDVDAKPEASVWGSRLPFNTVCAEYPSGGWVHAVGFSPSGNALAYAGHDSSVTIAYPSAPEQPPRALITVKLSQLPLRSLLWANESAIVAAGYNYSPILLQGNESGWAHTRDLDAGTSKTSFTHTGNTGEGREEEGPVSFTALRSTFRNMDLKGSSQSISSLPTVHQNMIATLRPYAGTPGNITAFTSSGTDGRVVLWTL


Tests used:
Settings in all cases: both partners purified
[1] = target: T2, Arp2 of S. pombe Arp2/3 complex (S. pombe, UniProt Q9UUJ1 1-390); experiment: cryo-EM structure; ADP-BeFx state: branch junctions prepared as for the ADP state, with 2 mM BeFx (2 mM BeSO4 and 10 mM NaF) added during daughter filament formation; ADP-BeFx on Arp3, ATP on Arp2; 3.2 Å
T2 construct: Arp2 subunit of S. pombe Arp2/3 complex; Seen within the whole complex in the branch junction
T2 sequence (Q9UUJ1 whole entry, one chain of several): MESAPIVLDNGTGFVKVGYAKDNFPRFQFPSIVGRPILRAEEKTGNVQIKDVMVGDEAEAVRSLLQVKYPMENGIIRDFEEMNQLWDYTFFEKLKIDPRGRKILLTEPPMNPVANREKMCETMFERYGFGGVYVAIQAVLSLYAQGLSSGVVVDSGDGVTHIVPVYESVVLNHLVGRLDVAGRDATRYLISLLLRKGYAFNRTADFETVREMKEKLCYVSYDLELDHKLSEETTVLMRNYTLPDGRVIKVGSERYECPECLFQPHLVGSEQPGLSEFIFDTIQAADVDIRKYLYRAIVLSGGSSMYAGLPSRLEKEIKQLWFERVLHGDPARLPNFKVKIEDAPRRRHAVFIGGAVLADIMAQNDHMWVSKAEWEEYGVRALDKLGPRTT

[2] = target: T1, ARPC1 of S. pombe Arp2/3 complex; experiment: as above
[3] = target: T2, Arp2 of S. pombe Arp2/3 complex; experiment: cryo-EM structure; ADP state: branch junctions of capped rabbit actin filaments with GCN4-VCA-activated S. pombe Arp2/3 complex, aged ~90 min; ADP on actin and Arp3, ATP on Arp2; 2.7 Å

binding result [1]	binding result [2]	binding result [3]	Binder
binds	binds	–	ARPC2 of S. pombe Arp2/3 complex (natural protein, ARPC2 subunit of S. pombe Arp2/3 complex; Seen within the whole complex in the branch junction) MLSLDYNNIFIYELLTERFSSENPSSIDQVVTDFDGVTFHISTPEEKTKILISLSMKCYPELVNYGTLDLLKQIYGAYVHEPEMGYNFSILIDLQQLPATDEEKEQLAMSISMLKRNVLAAPFHRAFTKQAELADLARKDPENAPMLDKQATSQELMAIHYRDEETIVLWPEHDRVTVVFSTKFREETDRIFGKVFLQEFVDARRRPAIQTAPQVLFSYRDPPLEIRDIQGIQKGDDFGFVTFVLFERHFTPQNREDCISHIQVFRNTLHFHIKASKAYMHQRMRKRVADFQKVLNRAKPDVELERKTATGRSFVRA
–	–	binds	ARPC3 of S. pombe Arp2/3 complex (natural protein, ARPC3 subunit of S. pombe Arp2/3 complex; Seen within the whole complex in the branch junction) MPAYHSSFLSLTDVPTTGNIAMLPLKTKFRGPAYPADESQMDIIDECIGLFRANCFFRNFEIKGPADRTLIYGTLFISECLGRVNGLNYRDAERQLNSLALENFSIPGSAGFPLNALYAPPLSPQDAEIMRTYLTQFRQELAYRLLSHVYATEKDHPSKWWTCFSKRRFMNKAL
